From patent US20230265171A1

What was measured:
Experiment in all cases: ELISA, antigen coated at 2 µg/mL
[1] = target: CoV-2 RBD (N354D, D364Y) (SARS-CoV-2) (UniProt P0DTC2)
[2] = target: CoV-2 RBD (W436R) (SARS-CoV-2) (UniProt P0DTC2)
[3] = target: CoV-2 S (R683A, R685A) (SARS-CoV-2) (UniProt P0DTC2)
[4] = target: CoV-2 RBD (N354D) (SARS-CoV-2) (UniProt P0DTC2)
[5] = target: CoV-2 RBD (V367F) (SARS-CoV-2) (UniProt P0DTC2)
[6] = target: CoV-2 S (D614G) (SARS-CoV-2) (UniProt P0DTC2)

Substance	EC50 [1]	EC50 [2]	EC50 [3]	EC50 [4]	EC50 [5]	EC50 [6]
SARS CoV-2 mAb [SAD-S35] (antibody)	0.05 µg/mL	0.04 µg/mL	0.05 µg/mL	0.04 µg/mL	0.04 µg/mL	0.03 µg/mL
IVIG (Gamunex)	1320 µg/mL	1240 µg/mL	2840 µg/mL	1240 µg/mL	1130 µg/mL	1330 µg/mL
